Data on two proteins can be found in FireProtDB (doi:10.1021/bi052621g).

Values joined by “and” are separate entries in the source; they are usually repeats but may differ in a detail not shown here. Identical values can stand only once.

For this data set the following is noted: Sus scrofa, pH 7, Thermal, Hepes 20 mM, reversible: No, whole UniProt chain shown.

B1: Major seminal plasma glycoprotein PSP-I wild type, P35495 (protein)
chain: MKLGSAIPWALLFSTATLISTGWGLDYHACGGRLTDDYGTIFTYKGPKTECVWTLQVDPKYKLLVSIPTLNLTCGKEYVEILEGAPGSKSLGKFCEGLSILNRGSSGMTVKYKRDSGHPASPYEIIFLRDSQG
The term Tm denotes the temperature at which the thermal transition is half complete. As to B1, under “DSC, ZnCl2 5 mM”, the Tm is 51.1 °C and the “unfolding enthalpy (calorimetric)” value is 17.4 kcal/mol. In addition, the “unfolding enthalpy (calorimetric)” value (DSC) was 18.4 kcal/mol and 20.8 kcal/mol.

B2: Major seminal plasma glycoprotein PSP-II wild type, P35496 (protein)
chain: MKLGTAIPWALLLSTATLVSTARINGPDECGRVIKDTSGSISNTDRQKNLCTWTILMKPDQKVRMAIPYLNLACGKEYVEVFDGLLSGPSYGKLCAGAAIVFLSTANTMTIKYNRISGNSSSPFLIYFYGSSPGSEY
Consider B2, for which the midpoint of thermal melting (Tm) (CD) stood at 52.6 °C.
